± gives the uncertainty stated by the source.
Experiment: self-splicing fitness, log relative to wild type (ln ratio); higher = more splicing; Tetrahymena group I intron in knt gene, E. coli kanamycin selection, DiMSum; sequences stand for … in CUCUCU…GGAGGGAAAAGUUAUCAGGCAUGCACCUGGUAGCUAGUCUUUAAACCAAUAGAUUGCAUCGGUUUAAAAGGCAAGACCGUCAAAUUGCGGGAAAGGGGUCAACAGCCGUUCAGUACCAAGUCUCAGGGGAAACUUUGAGAUGGCCUUGCAAAGGGUAUGGUAAUAAGCUGACGGACAUGGUCCUAACCACGCAGCCAAGUCCUAAGUCAACAGAUCUUCUGUUGAUAUGGAUGCAGUUCACAGACUAAAUGUCGGUCGGGGAAGAUGUAUUCUUCUCAUAAGAUAUAGUCGGACCUCUCCUUAAUGGGAGCUAGCGGAUGAAGUGAUGCAACACUGGAGCCGCUGGGAACUAAUUUGUAUGCGAAAGUAUAUUGAUUAGUUUUGGAGUACUCGUGGUCG
In short: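 Library with all eight P1ex-region intron nucleotides randomised, intron inside the knt kanamycin-resistance gene on pET-22b(+), in E. coli BL21(DE3). Cells grew overnight at 37°C or 30°C on LB agar with or without 25 μg/mL kanamycin (plus 100 μg/mL carbenicillin, 50 μM IPTG, 0.2% rhamnose), in six replicate transformations. Pooled colonies were amplicon-sequenced on Illumina HiSeq 2500. DiMSum fitness is the error-weighted combination of wild-type-normalised replicate fold changes, kanamycin versus none.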

Row | Sequence | self-splicing fitness (ln) (30 °C) | self-splicing fitness (ln) (37 °C)
1 | AUAAAGCAAUAUUACGACAA | -0.556 ± 0.086 | 0.621 ± 0.12
2 | UGACAGCAAUAUUACGACGU | -1.48 ± 0.099 | -0.473 ± 0.13
3 | CCUGAGCAAUAUUACGGAGC | -1.59 ± 0.47 | -1.9 ± 0.38
4 | UUGUAGCAAUAUUACGCUUU |  | -2.81 ± 0.31
5 | UACAAGCAAUAUUACGAUAG | -2.16 ± 0.093 | -0.848 ± 0.089
6 | CGUAAGCAAUAUUACGACCU | -1.97 ± 0.17 | -0.549 ± 0.16
7 | ACUUAGCAAUAUUACGAACU | -0.706 ± 0.12 | -0.193 ± 0.14
8 | UAUAAGCAAUAUUACGGGGA | -1.81 ± 0.19 | -1.91 ± 0.23
9 | CUGAAGCAAUAUUACGUUUG | -1.52 ± 0.061 | -1.23 ± 0.099
10 | CCUCAGCAAUAUUACGAGAU | -3.32 ± 0.18 | -3.16 ± 0.24
11 | ACAGAGCAAUAUUACGUUGU | -3.88 ± 0.2 | -2.34 ± 0.18
12 | GAUUAGCAAUAUUACGUUUA | -2.9 ± 0.25 | -1.05 ± 0.15
13 | CGGGAGCAAUAUUACGUACU |  | -1.86 ± 0.38
14 | CCAUAGCAAUAUUACGUAUA | -3.89 ± 0.3 | -1.46 ± 0.17
15 | GCCAAGCAAUAUUACGCCAC |  | -1.25 ± 0.27
16 | UGAUAGCAAUAUUACGUCCU | -0.302 ± 0.07 | 0.376 ± 0.1
17 | AGGGAGCAAUAUUACGAAUC |  | -2.43 ± 0.29
18 | CGUAAGCAAUAUUACGCUUG | -3.54 ± 0.18 | -0.367 ± 0.14
19 | GAAGAGCAAUAUUACGACCU | -1.45 ± 0.13 | -0.296 ± 0.18
20 | AGACAGCAAUAUUACGGCGG | -2.25 ± 0.13 | -0.609 ± 0.14
21 | AUCUAGCAAUAUUACGCCUG | -0.828 ± 0.16 | -1.39 ± 0.23
22 | GACAAGCAAUAUUACGGACG | -1.75 ± 0.098 | -0.673 ± 0.12
23 | AUUGAGCAAUAUUACGUUGA | -3.86 ± 0.37 | -3.45 ± 0.3
24 | UCUAAGCAAUAUUACGCACU | -3.04 ± 0.24 | -1.52 ± 0.17
25 | UGGAAGCAAUAUUACGUGAG | -0.593 ± 0.066 | -0.141 ± 0.098

Row | Sequence | self-splicing fitness (ln) (30 °C) | self-splicing fitness (ln) (37 °C)
26 | GGAUAGCAAUAUUACGGCCA | -0.925 ± 0.19 | -0.211 ± 0.18
27 | GGAGAGCAAUAUUACGAUCU |  | -2.47 ± 0.29
28 | AGCGAGCAAUAUUACGUUAA | -3.86 ± 0.37 | -2.67 ± 0.3
29 | CCCAAGCAAUAUUACGUAAA | -4.05 ± 0.33 | -3.46 ± 0.39
30 | CUCGAGCAAUAUUACGUUCU | -3.52 ± 0.17 | -2.8 ± 0.18
31 | AACGAGCAAUAUUACGUUUA | -3.12 ± 0.2 | -2.64 ± 0.21
32 | AGUCAGCAAUAUUACGUUGC |  | -2.83 ± 0.3
33 | CGAUAGCAAUAUUACGGCAU | -2.85 ± 0.21 | -2.54 ± 0.26
34 | GGCUAGCAAUAUUACGGACG | 0.655 ± 0.093 | 0.211 ± 0.11
35 | GAGAAGCAAUAUUACGGUCC | -2.14 ± 0.24 | -1.06 ± 0.21
36 | CAAGAGCAAUAUUACGUCUG | -1.45 ± 0.15 | -0.511 ± 0.16
37 | GACGAGCAAUAUUACGGUAA | -3.65 ± 0.47 | -2.33 ± 0.33
38 | GUUUAGCAAUAUUACGUGUA | -2.53 ± 0.092 | -0.725 ± 0.077
39 | UACGAGCAAUAUUACGAGUA | -2.84 ± 0.15 | -2.52 ± 0.15
40 | AAUAAGCAAUAUUACGACUC | 0.0667 ± 0.14 | 0.341 ± 0.2
41 | AGCGAGCAAUAUUACGAUCC |  | -0.865 ± 0.49
42 | GACCAGCAAUAUUACGCGGG | -3.03 ± 0.13 | -2.79 ± 0.19
43 | AGUAAGCAAUAUUACGGUCU | -0.432 ± 0.093 | -0.488 ± 0.11
44 | AUUCAGCAAUAUUACGAAGG | -1.02 ± 0.087 | -0.355 ± 0.12
45 | GCCAAGCAAUAUUACGGAGU | -0.992 ± 0.066 | -1.57 ± 0.09
46 | GCGCAGCAAUAUUACGCUGC |  | -3.59 ± 0.43
47 | AGACAGCAAUAUUACGUUUA | -2.45 ± 0.094 | -0.782 ± 0.083
48 | CACUAGCAAUAUUACGCUGU | -3.17 ± 0.14 | -3.3 ± 0.23
49 | GUUAAGCAAUAUUACGGCAA | 0.045 ± 0.2 | -0.394 ± 0.22
50 | AUGGAGCAAUAUUACGACGC | -1.44 ± 0.16 | -0.789 ± 0.19

Row | Sequence | self-splicing fitness (ln) (30 °C) | self-splicing fitness (ln) (37 °C)
51 | AAGAAGCAAUAUUACGUUUA | -1.62 ± 0.074 | -1.01 ± 0.077
52 | GUAGAGCAAUAUUACGGAGG |  | -1.69 ± 0.43
53 | UCGUAGCAAUAUUACGGUCG | -1.69 ± 0.12 | 0.265 ± 0.13
54 | AGUGAGCAAUAUUACGGCGA | -1.18 ± 0.14 | -2 ± 0.21
55 | GACGAGCAAUAUUACGGCGC | -1.79 ± 0.093 | -0.8 ± 0.11
56 | CCAAAGCAAUAUUACGGAUA | -2.87 ± 0.22 | -2.17 ± 0.31
57 | UGGGAGCAAUAUUACGGUCU | -4.3 ± 0.32 | -2.09 ± 0.22
58 | GACAAGCAAUAUUACGUUUA | -1.66 ± 0.084 | -1.58 ± 0.089
59 | GACGAGCAAUAUUACGUCCA | -2.11 ± 0.32 | -2.68 ± 0.31
60 | ACGCAGCAAUAUUACGGGAU | -2.32 ± 0.079 | -1.41 ± 0.089
61 | UCCUAGCAAUAUUACGUUAG | -3.49 ± 0.2 | -1.92 ± 0.23
62 | UUAUAGCAAUAUUACGACGA | -0.378 ± 0.098 | 0.212 ± 0.1
63 | UAGAAGCAAUAUUACGAGGG | -3.17 ± 0.18 | -2.62 ± 0.21
64 | UCCCAGCAAUAUUACGUAAA | -0.605 ± 0.065 | 0.00983 ± 0.085
65 | UCGAAGCAAUAUUACGCGAA | -2.42 ± 0.17 | -0.19 ± 0.13
66 | AUCUAGCAAUAUUACGAAGG | -3.42 ± 0.3 | -2.01 ± 0.32
67 | UUGGAGCAAUAUUACGUAGG | -3.11 ± 0.23 | -1.86 ± 0.15
68 | GUGCAGCAAUAUUACGUGAC | -1.86 ± 0.14 | -1.33 ± 0.14
69 | UAUUAGCAAUAUUACGUAUC | -3.31 ± 0.24 | -2.47 ± 0.29
70 | GACGAGCAAUAUUACGUCAU | -2.2 ± 0.2 | -3.16 ± 0.43
71 | CACCAGCAAUAUUACGUUUC | -4.36 ± 0.19 | -2.58 ± 0.22
72 | GACUAGCAAUAUUACGAUCU | -0.896 ± 0.087 | -1.38 ± 0.096
73 | GUAUAGCAAUAUUACGAUCG | -1.69 ± 0.33 | -0.878 ± 0.31
74 | CAUUAGCAAUAUUACGCGAC | -3.58 ± 0.48 | 
75 | GGAUAGCAAUAUUACGUGUU | -3.31 ± 0.17 | -1.63 ± 0.14

Row | Sequence | self-splicing fitness (ln) (30 °C) | self-splicing fitness (ln) (37 °C)
76 | AGGGAGCAAUAUUACGCUAG | -2.36 ± 0.31 | -0.612 ± 0.41
77 | CAUUAGCAAUAUUACGGGAA |  | -2.59 ± 0.41
78 | AGUAAGCAAUAUUACGGGAA | -2.13 ± 0.16 | -2.12 ± 0.19
79 | UGAAAGCAAUAUUACGCCAA | -1.13 ± 0.15 | -0.806 ± 0.18
80 | CUGAAGCAAUAUUACGACAG | -0.755 ± 0.063 | 0.511 ± 0.11
81 | CGGGAGCAAUAUUACGGAGC | -2.32 ± 0.37 | -0.632 ± 0.25
82 | CCUUAGCAAUAUUACGCUCU | -3.8 ± 0.43 | -0.731 ± 0.38
83 | CUGCAGCAAUAUUACGUCAU | -2.86 ± 0.14 | -2.06 ± 0.13
84 | AGGCAGCAAUAUUACGGAAG | -2.92 ± 0.13 | -1.98 ± 0.15
85 | CCUAAGCAAUAUUACGCAAA | -3.38 ± 0.36 | -1.76 ± 0.3
86 | CUACAGCAAUAUUACGUUGA | -3.13 ± 0.17 | -3.35 ± 0.21
87 | CGUUAGCAAUAUUACGACGG | 0.168 ± 0.13 | -0.377 ± 0.12
88 | CGCAAGCAAUAUUACGUCCU | -1.2 ± 0.11 | -0.366 ± 0.12
89 | AUGUAGCAAUAUUACGCGAU | -2.09 ± 0.2 | -2.55 ± 0.24
90 | GCACAGCAAUAUUACGAAUA | -1.42 ± 0.13 | -1.09 ± 0.16
91 | CAGGAGCAAUAUUACGGGGG | -2.9 ± 0.19 | -2.4 ± 0.25
92 | UUUAAGCAAUAUUACGCUUC | -2.24 ± 0.35 | 
93 | UUCGAGCAAUAUUACGGCAG | -2.05 ± 0.17 | -1.39 ± 0.19
94 | AGUCAGCAAUAUUACGUAGU | -1.21 ± 0.077 | -0.268 ± 0.12
95 | CAACAGCAAUAUUACGUUGU | -4.21 ± 0.18 | -3.06 ± 0.16
96 | GCGAAGCAAUAUUACGGCGC | -2.48 ± 0.29 | -1.01 ± 0.43
97 | UUCGAGCAAUAUUACGCACA | -1.76 ± 0.25 | -1.45 ± 0.28
98 | AGUCAGCAAUAUUACGUAGA | -2.08 ± 0.095 | -0.757 ± 0.098
99 | CCGUAGCAAUAUUACGACCU | -0.833 ± 0.34 | 
